Tested on: carbamoylphosphate synthetase (CPSase)
Assay: CPSase activity in reaction of carbamoylphosphate (CP) synthesis from glutamine or ammonia, protein extracts, CP by capillary zone electrophoresis
Format: biochemical, E. coli
Experimental: Then, the protein extracts from these 9 clones B-6969(pEL-carAB-NN) and one clone B-6969(pEL-carAB-6) were used to evaluate the activity and fbr of mutant CPSases in reaction of carbamoylphosphate (CP) synthesis from glutamine or ammonia.
The crude cellular extracts from cells were prepared by sonication of 20 mg wet cells pellet suspended in 0.5 ml of buffer A (200 mM K2HPO4/KH2PO4, pH 8.0, 1 mM EDTA, 1 mM PMSF, 1 mM DTT) and treated with solid ammonium sulfate to achieve 65% of saturation. After incubation for 10 min at 4° C., the suspensions were centrifuged at 13,000 rpm for 10 min and the precipitates were dissolved in 1 ml of buffer B (20 mM K2HPO4/KH2PO4, pH 8.0, 50 mM KCl, 1 mM PMSF, 1 mM DTT). The aliquots of obtained protein extracts were used to evaluate the CPSase activity. The schemes of reaction were following: Gln+CO2+2MgATP+H2O→NH2COOPO3^2−+2MgADP+Glu+P1 I. NH3+CO2+[…]+H2O→NH2COOPO3^2−+2MgADP+P1 II.
The 50 μl of each reaction mixture included:
reaction I—20 mM tris-HCl, pH 8.0, 100 mM KCl, 5 mM Na2CO3, 10 mM ATP, 10 mM MgCl2, 5 mM glutamine, 10 μl of protein extract;
reaction II—20 mM tris-HCl, pH 8.0, 100 mM KCl, 5 mM Na2CO3, 10 mM ATP, 10 mM MgCl2, 200mM (NH4)2SO4, 10 μl of protein extract. […]
After incubation for 10 min at 37° C. reactions were stopped by addition of equal volume of EtOH, cooled at −20° C. for 10 min and centrifuged at 13,000 rpm for 1 min at room temperature. Supernatants were cooled at −20° C.
The CP content in reaction mixtures was analyzed by capillary zone electrophoresis. The separation was performed on a Quanta 4000E Capillary Electrophoresis System (“Waters”, USA) with UV indirect detection at 254 nm. The injection was performed by hydrostatic for 25 s. The separation was carried out with an uncoated fused-silica capillary (75 u I.D.* 60cm, effective length 53 cm) and was operated at −25 kV potential. Temperature was maintained at 20° C. The separation buffer consisted of 50 mM Tris base, 25mM benzoic acid (for indirect detection), pH 8.5, 0.25mM TTAB (tetradecyl-trimethyl-ammonium bromide) (for reversion of electroosmotic flow).

B1: clone Wt: wild type E. coli CPSase; CarB 947-951 -Leu-Ser-Val-Arg-Glu- (SEQ ID NO: 28) (protein, UniProt P0A6F1 1-382; P00968 2-1073, looked up)
Carbamoyl phosphate synthase … 1: MIKSALLVLEDGTQFHGRAIGATGSAVGEVVFNTSMTGYQEILTDPSYSRQIVTLTYPHIGNVGTNDADEESSQVHAQGLVIRDLPLIASNFRNTEDLSSYLKRHNIVAIADIDTRKLTRLLREKGAQNGCIIAGDNPDAALALEKARAFPGLNGMDLAKEVTTAEAYSWTQGSWTLTGGLPEAKKEDELPFHVVAYDFGAKRNILRMLVDRGCRLTIVPAQTSAEDVLKMNPDGIFLSNGPGDPAPCDYAITAIQKFLETDIPVFGICLGHQLLALASGAKTVKMKFGHHGGNHPVKDVEKNVVMITAQNHGFAVDEATLPANLRVTHKSLFDGTLQGIHRTDKPAFSFQGHPEASPGPHDAAPLFDHFIELIEQYRKTAK
Carbamoyl phosphate synthase … 2: PKRTDIKSILILGAGPIVIGQACEFDYSGAQACKALREEGYRVILVNSNPATIMTDPEMADATYIEPIHWEVVRKIIEKERPDAVLPTMGGQTALNCALELERQGVLEEFGVTMIGATADAIDKAEDRRRFDVAMKKIGLETARSGIAHTMEEALAVAADVGFPCIIRPSFTMGGSGGGIAYNREEFEEICARGLDLSPTKELLIDESLIGWKEYEMEVVRDKNDNCIIVCSIENFDAMGIHTGDSITVAPAQTLTDKEYQIMRNASMAVLREIGVETGGSNVQFAVNPKNGRLIVIEMNPRVSRSSALASKATGFPIAKVAAKLAVGYTLDELMNDITGGRTPASFEPSIDYVVTKIPRFNFEKFAGANDRLTTQMKSVGEVMAIGRTQQESLQKALRGLEVGATGFDPKVSLDDPEALTKIRRELKDAGADRIWYIADAFRAGLSVDGVFNLTNIDRWFLVQIEELVRLEEKVAEVGITGLNADFLRQLKRKGFADARLAKLAGVREAEIRKLRDQYDLHPVYKRVDTCAAEFATDTAYMYSTYEEECEANPSTDREKIMVLGGGPNRIGQGIEFDYCCVHASLALREDGYETIMVNCNPETVSTDYDTSDRLYFEPVTLEDVLEIVRIEKPKGVIVQYGGQTPLKLARALEAAGVPVIGTSPDAIDRAEDRERFQHAVERLKLKQPANATVTAIEMAVEKAKEIGYPLVVRPSYVLGGRAMEIVYDEADLRRYFQTAVSVSNDAPVLLDHFLDDAVEVDVDAICDGEMVLIGGIMEHIEQAGVHSGDSACSLPAYTLSQEIQDVMRQQVQKLAFELQVRGLMNVQFAVKNNEVYLIEVNPRAARTVPFVSKATGVPLAKVAARVMAGKSLAEQGVTKEVIPPYYSVKEVVLPFNKFPGVDPLLGPEMRSTGEVMGVGRTFAEAFAKAQLGSNSTMKKHGRALLSVREGDKERVVDLAAKLLKQGFELDATHGTAIVLGEAGINPRLVNKVHEGRPHIQDRIKNGEYTYIINTTSGRRAIEDSRVIRRSALQYKVHYDTTLNGGFATAMALNADATEKVISVQEMHAQIK
Activity, (CP) (Substrate: 5 mM Gln): 1350 nmol/mg/min
Activity, (CP) (Substrate: 5 mM Gln, Allosteric effector: 10 mM UMP): 170 nmol/mg/min
Activity, (CP) (Substrate: 200 mM (NH4)2SO4): 425 nmol/mg/min
